Results as given in patent US20230062308A1, “TREATMENT OF CK8 POSITIVE CANCERS IN RELATION WITH K-RAS GENE STATUS” (INTERNATIONAL - DRUG - DEVELOPMENT - BIOTECH, priority 2017, published 2023).

Biological target: T1, eCK8 (Homo sapiens, UniProt P05787)
T1 construct: methods to investigate on CK8 cellular expression at the cell surface analysed by flow cytometry; endogenous in cells
T1 sequence (P05787 1-483): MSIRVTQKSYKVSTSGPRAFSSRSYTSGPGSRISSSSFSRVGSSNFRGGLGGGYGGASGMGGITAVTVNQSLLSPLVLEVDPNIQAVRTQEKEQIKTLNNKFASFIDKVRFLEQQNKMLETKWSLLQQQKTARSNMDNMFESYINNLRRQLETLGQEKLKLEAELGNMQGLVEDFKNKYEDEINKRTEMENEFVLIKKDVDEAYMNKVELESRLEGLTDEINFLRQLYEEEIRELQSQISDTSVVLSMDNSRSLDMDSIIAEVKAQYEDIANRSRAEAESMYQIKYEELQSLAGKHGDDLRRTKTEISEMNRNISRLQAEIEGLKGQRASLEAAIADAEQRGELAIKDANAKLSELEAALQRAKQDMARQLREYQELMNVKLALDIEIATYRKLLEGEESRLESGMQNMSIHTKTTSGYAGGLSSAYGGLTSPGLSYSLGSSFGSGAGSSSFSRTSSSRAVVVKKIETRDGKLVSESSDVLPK
Assay: Antibody binding assay by flow cytometry (eCK8 expression on solid tumour cell lines)
Conditions: MAb 5 μg/mL, mean ± SD
Experimental: Cell lines. The established human neuroglioma cells H4, HS683, U373 or A172 (available from ATCC); the established human colorectal cells HT29; the established human pancreatic cells PANC1 or MIA-PA-CA2; the established human kidney adenocarcinoma cells A704 or ACHN and the established human lung adenocarcinoma cells A549 were grown in Dulbecco's Modified Eagle's Medium (Sigma, St Quentin Fallavier, France) supplemented with 10% heat-inactivated foetal bovine serum (FBS) (Sigma, St Quentin Fallavier, France), […] L-glutamine (Sigma, St Quentin Fallavier, France) and 100 U/mL, 100 μg/mL penicillin-streptomycin (Sigma, St Quentin Fallavier, France). The established human glioblastoma astrocytoma cells U87MG or T98G, the human head and neck cancer cells FaDu or Detroit562, the human urinary cancer cells UM-UC-3, J82, HT1197 or HT1376 and the human prostate cancer cells DU145 were grown in Eagle's Minimum Essential Medium (Sigma, St Quentin Fallavier, France) supplemented with 10% heat-inactivated fetal bovine serum (FBS) (Sigma, St Quentin Fallavier, France), […] L-glutamine (Sigma, St Quentin Fallavier, France) and 100 U/mL, 100 μg/mL penicillin-streptomycin (Sigma, St Quentin Fallavier, France). The established human breast adenocarcinoma cells MDAMB231, MCF-7 or HBL100 and the human colorectal cancer cells HCT116 were grown in Dulbecco's Modified Eagle's Medium Glutamax Low Glucose (Life Technologies, St Aubin, France) supplemented with 10% heat-inactivated fetal bovine serum (FBS) (Sigma, St Quentin Fallavier, France), […] L-glutamine (Sigma, St Quentin Fallavier, France) and 100 U/mL, 100 μg/mL penicillin-streptomycin (Sigma, St Quentin Fallavier, France).The established human colorectal cells HCT15 or SW480 and the human head and neck cancer cells TR146 were grown in Dulbecco's Modified Eagle's Medium Glutamax High Glucose (Life Technologies, St Aubin, France) supplemented with 10% heat-inactivated fetal bovine serum (FBS) (Sigma, St Quentin Fallavier, France) and 100 U/mL, 100 μg/mL penicillin-streptomycin (Sigma, St Quentin Fallavier, France). The established human head and neck cancer cells BICR16, BICR18 or BICR56 were grown in Dulbecco's Modified Eagle's Medium (Sigma, St Quentin Fallavier, France) supplemented with 10% heat-inactivated foetal bovine serum (FBS) (Sigma, St Quentin Fallavier, France), […] L-glutamine (Sigma, St Quentin Fallavier, France), 100 U/mL, 100 μg/mL penicillin-streptomycin (Sigma, St Quentin Fallavier, France) and 0.4 μg/mL hydrocortisone (Sigma, St Quentin Fallavier, France). The established human head and neck cancer cells SCC9, SCC4 or SCC15 were grown in Dulbecco's Modified Eagle's Medium/F12 (Life Technologies, St Aubin, France) supplemented with 10% heat-inactivated foetal bovine serum (FBS) (Sigma, St Quentin Fallavier, France), […] L-glutamine (Sigma, St Quentin Fallavier, France), 100 U/mL, 100 μg/mL penicillin-streptomycin (Sigma, St Quentin Fallavier, France) and 0,4 μg/mL hydrocortisone (Sigma, St Quentin Fallavier, France). The established human urinary bladder carcinoma cells 5637, the human prostate cancer cells LNCap clone FGC, the established human lung adenocarcinoma cells NCIH1703 or NCIH292, the human pancreatic cancer cells PSN1 or BxPC3 and the human kidney adenocarcinoma cells Caki1 were grown in RPMI-1640 Medium (Sigma, St Quentin Fallavier, France) supplemented with 10% heat-inactivated fetal bovine serum (FBS) (Sigma, St Quentin Fallavier, France), […] L-glutamine (Sigma, St Quentin Fallavier, France) and 100 U/mL, 100 μg/mL penicillin-streptomycin (Sigma, St Quentin Fallavier, France). […]

[1] = Detroit562 cell line (Head & Neck)
[2] = LNCaP clone FGC cell line (Prostate)
[3] = MIA-Pa-Ca-2 cell line (Pancreatic)

- % labelled cells (8-MG-BA cell line (GBM)): 72 ± 11%
- MFI (8-MG-BA cell line (GBM)): 261 ± 38
- % labelled cells (42-MG-BA cell line (GBM)): 54 ± 7%
- MFI (42-MG-BA cell line (GBM)): 247 ± 44
- % labelled cells (5637 cell line (Urinary)): 59 ± 20%
- MFI (5637 cell line (Urinary)): 284 ± 61
- % labelled cells (A172 cell line (GBM)): 35 ± 23%
- MFI (A172 cell line (GBM)): 186 ± 14
- % labelled cells (A549 cell line (Lung)): 36 ± 12%
- MFI (A549 cell line (Lung)): 193 ± 38
- % labelled cells (A704 cell line (Renal)): 37 ± 26%
- MFI (A704 cell line (Renal)): 184 ± 30
- % labelled cells (ACHN cell line (Renal)): 46 ± 20%
- MFI (ACHN cell line (Renal)): 195 ± 20
- % labelled cells (AsPC-1 cell line (Pancreatic)): 26 ± 14%
- MFI (AsPC-1 cell line (Pancreatic)): 181 ± 17
- % labelled cells (BICR16 cell line (Head & Neck)): 52 ± 2%
- MFI (BICR16 cell line (Head & Neck)): 206 ± 10
- % labelled cells (BICR18 cell line (Head & Neck)): 79 ± 9%
- MFI (BICR18 cell line (Head & Neck)): 257 ± 23
- % labelled cells (BICR56 cell line (Head & Neck)): 39 ± 34%
- MFI (BICR56 cell line (Head & Neck)): 123 ± 4
- % labelled cells (BxPC-3 cell line (Pancreatic)): 41 ± 17%
- MFI (BxPC-3 cell line (Pancreatic)): 220 ± 17
- % labelled cells (CFPAC-1 cell line (Pancreatic)): 62 ± 4%
- MFI (CFPAC-1 cell line (Pancreatic)): 279 ± 25
- % labelled cells (Caki1 cell line (Renal)): 49 ± 12%
- MFI (Caki1 cell line (Renal)): 267 ± 36
- % labelled cells (DU145 cell line (Prostate)): 19 ± 11%
- MFI (DU145 cell line (Prostate)): 185 ± 42
- % labelled cells [1]: 36 ± 0%
- MFI [1]: 203 ± 15
- % labelled cells (FaDu cell line (Head & Neck)): 56 ± 8%
- MFI (FaDu cell line (Head & Neck)): 258 ± 20
- % labelled cells (H4 cell line (GBM)): 58 ± 33%
- MFI (H4 cell line (GBM)): 199 ± 40
- % labelled cells (HBL100 cell line (Breast)): 67 ± 8%
- MFI (HBL100 cell line (Breast)): 219 ± 6
- % labelled cells (HCT116 cell line (Colon)): 64 ± 0%
- MFI (HCT116 cell line (Colon)): 283 ± 16
- % labelled cells (HS683 cell line (GBM)): 54 ± 9%
- MFI (HS683 cell line (GBM)): 225 ± 24
- % labelled cells (HT29 cell line (Colon)): 49 ± 9%
- MFI (HT29 cell line (Colon)): 203 ± 22
- % labelled cells (HT1197 cell line (Urinary)): 23 ± 7%
- MFI (HT1197 cell line (Urinary)): 240 ± 4
- % labelled cells (HT1376 cell line (Urinary)): 53 ± 3%
- MFI (HT1376 cell line (Urinary)): 497 ± 11
- % labelled cells (HuP-T3 cell line (Pancreatic)): 62 ± 17%
- MFI (HuP-T3 cell line (Pancreatic)): 260 ± 20
- % labelled cells (J82 cell line (Urinary)): 68 ± 9%
- MFI (J82 cell line (Urinary)): 319 ± 4
- % labelled cells [2]: 76 ± 9%
- MFI [2]: 412 ± 21
- % labelled cells (MCF-7 cell line (Breast)): 56 ± 33%
- MFI (MCF-7 cell line (Breast)): 250 ± 61
- % labelled cells (MDAMB231 cell line (Breast)): 49 ± 14%
- MFI (MDAMB231 cell line (Breast)): 179 ± 15
- % labelled cells [3]: 58 ± 14%
- MFI [3]: 264 ± 14
- % labelled cells (NCIH292 cell line (Lung)): 53 ± 20%
- MFI (NCIH292 cell line (Lung)): 272 ± 38
- % labelled cells (NCIH1703 cell line (Lung)): 33 ± 10%
- MFI (NCIH1703 cell line (Lung)): 188 ± 12
- % labelled cells (PANC-1 cell line (Pancreatic)): 37 ± 7%
- MFI (PANC-1 cell line (Pancreatic)): 198 ± 23
- % labelled cells (PSN-1 cell line (Pancreatic)): 15 ± 6%
- MFI (PSN-1 cell line (Pancreatic)): 193 ± 16
- % labelled cells (SCC4 cell line (Head & Neck)): 59 ± 16%
- MFI (SCC4 cell line (Head & Neck)): 222 ± 88
- % labelled cells (SCC9 cell line (Head & Neck)): 30 ± 23%
- MFI (SCC9 cell line (Head & Neck)): 193 ± 23
- % labelled cells (SCC 15 cell line (Head & Neck)): 41 ± 21%
- MFI (SCC 15 cell line (Head & Neck)): 167 ± 13
- % labelled cells (SW480 cell line (Colon)): 38 ± 3%
- MFI (SW480 cell line (Colon)): 179 ± 1
- % labelled cells (T98G cell line (GBM)): 48 ± 25%
- MFI (T98G cell line (GBM)): 211 ± 20
- % labelled cells (TCCSUP cell line (Urinary)): 62 ± 10%
- MFI (TCCSUP cell line (Urinary)): 255 ± 48
- % labelled cells (TR146 cell line (Head & Neck)): 55 ± 18%
- MFI (TR146 cell line (Head & Neck)): 140 ± 4
- % labelled cells (U87-MG cell line (GBM)): 38 ± 23%
- MFI (U87-MG cell line (GBM)): 178 ± 35
- % labelled cells (U373 cell line (GBM)): 53 ± 1%
- MFI (U373 cell line (GBM)): 161 ± 7
- % labelled cells (UM-UC-3 cell line (Urinary)): 26 ± 23%
- MFI (UM-UC-3 cell line (Urinary)): 156 ± 14
B1: HzR022 (D-A10): humanized anti-CK8 monoclonal antibody D-A10; VL SEQ ID NO: 14, VH SEQ ID NO: 15 (antibody, V domains shown)
VH: EVQLVESGGGLVQPGGSLRLSCAASGFTFSSYWMSWVRQAPGKGLVWVSDINSDGSSTKYADSVKGRFTISRDNAKNTLYLQMNSLRAEDTAVYYCIAHYSGGGFAYWGQGTLVTVSS
VL: DIVMTQAPLSLPVTPGEPASISCRSSKSLLYSNGYNYLYWFLQKPGQSPQLLIYYMSNLASGVPDRFSGSGSGTDFTLKISRVEAEDVGVYYCMQSLEYPFTFGQGTKLEIK
modifications: VHHzD-A10; VLHzD-A10
